From patent US11358986B2, “IL-2RBETA binding compounds” (MEDIKINE, INC., priority 2018, dated 2022) come the findings set out here.

Ends that are not written are not given here.

Test [1] addresses T1, extracellular domain (ECD) of IL-2Rβ (Homo sapiens, UniProt P14784).
T1 construct: Fc; purchased ACRObiosystems, Inc. ILB-H5253
T1 sequence (P14784 27-239): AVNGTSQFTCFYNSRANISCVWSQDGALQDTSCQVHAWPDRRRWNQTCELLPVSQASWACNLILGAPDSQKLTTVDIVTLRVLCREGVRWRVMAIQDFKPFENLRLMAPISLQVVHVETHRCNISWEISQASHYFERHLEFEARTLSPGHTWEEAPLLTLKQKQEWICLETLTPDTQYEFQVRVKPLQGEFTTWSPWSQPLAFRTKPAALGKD
Nature of the test: Competitive binding of synthetic test peptides against phage clones on immobilized IL-2Rβ ECD. To be noted: for Competition with phage clone peptide SEQ ID NO: 58: phage clone of IL-2β family 1; for Competition with phage clone peptide SEQ ID NO: 170: phage clone of IL-2β family 2A; for Competition with phage clone peptide SEQ ID NO: 83: phage clone of IL-2β family 2B; for Competition with phage clone peptide SEQ ID NO: 1034 or 1084: phage clone of IL-2β family 2C; for Competition with phage clone peptide SEQ ID NO: 1044: phage clone of IL-2β family 4. The procedure: (§1) Competitive binding assays were performed to characterize the IL-2R binding sites for certain IL-2Rβ and to IL-2Rγc ligands.
Representative phage clones displaying peptides from IL-2Rβ ligand families were bound to the extracellular domain (ECD) of IL-2Rβ immobilized in microtiter wells. Phage binding was conducted in the presence and absence of synthetic test peptides to determine if phage peptides and test peptides competed for binding to the same sites on IL-2Rβ. Synthetic test peptides were selected to represent peptides from IL-2Rβ ligand families, as well positive and negative control peptides.
(§2) Phage binding to the immobilized IL-2Rβ ECD was detected by staining with antibody against phage coat proteins (anti-phage Ab), staining with labeled secondary antibody against the anti-phage Ab, and scored by reading OD in the microtiter plate optical reader.
(§3) The ELISA signal for each phage binding in the presence and absence of the test peptides was compared to determine which synthetic peptides competed with which phage peptides for binding to the IL-2Rβ subunit.

The target of the next test is T2, IL-2Rγc subunit (Homo sapiens, UniProt P31785).
T2 construct: Fc; purchased ACRObiosystems, Inc. ILG-H5256
T2 sequence (P31785 23-254): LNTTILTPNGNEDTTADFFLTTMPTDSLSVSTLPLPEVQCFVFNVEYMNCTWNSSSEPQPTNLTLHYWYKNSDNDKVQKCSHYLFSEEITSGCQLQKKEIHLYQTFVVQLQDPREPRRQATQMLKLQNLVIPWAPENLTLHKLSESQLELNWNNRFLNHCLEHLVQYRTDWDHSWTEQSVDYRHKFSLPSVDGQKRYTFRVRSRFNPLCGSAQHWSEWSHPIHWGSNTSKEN
Nature of the test: Competitive binding of synthetic test peptides against phage clones on IL-2Rγc. The note with it: for Competition with phage clone peptide SEQ ID NO: 198: phage clone of IL-2Rγc family 1A; for Competition with phage clone peptide SEQ ID NO: 224: phage clone of IL-2Rγc family 1B; for Competition with phage clone peptide SEQ ID NO: 236: phage clone of IL-2Rγc family 2; for Competition with phage clone peptide SEQ ID NO: 248 or 1051: phage clone of IL-2Rγc family 3; for Competition with phage clone peptide SEQ ID NO: 266: phage clone of IL-2Rγc family 4; for Competition with phage clone peptide SEQ ID NO: 948: phage clone of IL-2Rγc family 5. The procedure:
as §1, §2, §3
A similar study was performed to evaluate the binding of IL-2Rγc ligands.

In the next test the test system is NK-92 cells. Nature of the test: STAT5 phosphorylation in NK-92 cells. In kind it is cell-based, human. To be noted: Western Blot, 0.1, 1 and 10 μM, 30 min.

Description for NK-92 cells: NK-92 cells were seeded in a 24-well plate at 4×10^5 cells, in 1 mL starvation medium (SM), and incubated overnight at 37° C., 5% CO2. The starvation medium contained RPMI 1640+20% FBS+2 mM L-glutamine+1 mM NaPyr+10 mM HEPES+0.1 mM BME (no rhIL-2 supplement).
Treatment mixtures were of 1 pg/mL Anti-hIL-2 neutralizing antibody (0.2 mg/mL stock) or goat IgG control (1 mg/mL stock) were prepared.
The treatment mixtures and the antibody mix were added to the cells for 30 min at 37° C., 5% CO2. Each sample was then transferred to a 1.5 mL microfuge tube and spun down at 1,500 RPM for 5 minutes. The cells were washed in 1 mL PBS and centrifuged again.
A phosphatase and protease inhibitor cocktail (Thermo #78442) were added to mPER buffer at a 1:100 dilution. After the cells were pelleted, 50 μL of mPER buffer was added to each sample and pipetted repeatedly to homogenize.
The lysates were centrifuged at 14,000 RPM for 5 min at RT. The supernatants were transferred to clean tubes and stored frozen at −80° C.
The treatment reagents included Anti-STAT5 Antibody (rabbit), Cell Signaling No. 94205S; Anti-pSTAT5 Antibody (rabbit), Cell Signaling No. 4322S; and Goat anti-rabbit IgG-HRP, Jackson Immunoresearch No. 111-035-144.

Consider 1044 (RSCYYKRPRLWCSE) [compound 1044], for which, in test [1], the “competition for binding to the binding site of the IL-2Rβ subunit with the group of IL-2Rβ ligands” value (shortened to “competition for binding … of IL-2Rβ ligands”) is listed as “does not compete”.

In the case of 58 (YDCRIAQVGELCDL) [Peptide 58], in test [1], the “Competition with phage clone peptide SEQ ID NO: 58” value is reported as “+^1 (Peptide competes with phage binding.)”, the “Competition with phage clone peptide SEQ ID NO: 170” value is on record as “+ (Peptide competes with phage binding.)”, the “Competition with phage clone peptide SEQ ID NO: 83” value is on record as “+ (Peptide competes with phage binding.)” and the “Competition with phage clone peptide SEQ ID NO: 1034 or 1084” value is given as “+ (Peptide competes with phage binding.)”. Also, the “Competition with phage clone peptide SEQ ID NO: 1044” value in test [1] is reported as “−”. In the test with IL-2Rγc subunit, the “Competition with phage clone peptide SEQ ID NO: 198” value is recorded as “−”, the “Competition with phage clone peptide SEQ ID NO: 224” value is on record as “−”, the “Competition with phage clone peptide SEQ ID NO: 236” value was “−” and the “Competition with phage clone peptide SEQ ID NO: 248 or 1051” value was “−”. Further, in the test with IL-2Rγc subunit, the “Competition with phage clone peptide SEQ ID NO: 266” value is “−” and the “Competition with phage clone peptide SEQ ID NO: 948” value was “−”.

As for 1042 (CYEVGDYCQSPL) [Peptide 1042], in test [1], the “Competition with phage clone peptide SEQ ID NO: 58” value was “+ (Peptide competes with phage binding.)”, the “Competition with phage clone peptide SEQ ID NO: 170” value was “+ (Peptide competes with phage binding.)”, the “Competition with phage clone peptide SEQ ID NO: 83” value is “+ (Peptide competes with phage binding.)” and the “Competition with phage clone peptide SEQ ID NO: 1034 or 1084” value is given as “+ (Peptide competes with phage binding.)”. For the same substance, in test [1], the “Competition with phage clone peptide SEQ ID NO: 1044” value was “−”.

Consider 169 (NMCLVGDYWPSCQI) [Peptide 169], for which, in test [1], the “Competition with phage clone peptide SEQ ID NO: 58” value was “+ (Peptide competes with phage binding.)”, the “Competition with phage clone peptide SEQ ID NO: 170” value is given as “+ (Peptide competes with phage binding.)”, the “Competition with phage clone peptide SEQ ID NO: 83” value is “+ (Peptide competes with phage binding.)” and the “Competition with phage clone peptide SEQ ID NO: 1034 or 1084” value was “+ (Peptide competes with phage binding.)”. For the same substance, in test [1], the “Competition with phage clone peptide SEQ ID NO: 1044” value was “−”.

With 224 (DCSMWEGVELCW) [compound 224], the “competition for binding … of IL-2Rβ ligands” value in test [1] is reported as “does not compete”.

For 948 (SLLKCYNASTCASVF) [compound 948], in the test with IL-2Rγc subunit, the “competition for binding to the binding site of the IL-2Rγc subunit with the group of IL-2Rγc ligands” value was “does not compete”.

For the substance 224 (DCSMWEGVELCW) [Peptide 224], in test [1], the “Competition with phage clone peptide SEQ ID NO: 58” value is “−”, the “Competition with phage clone peptide SEQ ID NO: 170” value is reported as “−”, the “Competition with phage clone peptide SEQ ID NO: 83” value is “−” and the “Competition with phage clone peptide SEQ ID NO: 1034 or 1084” value is “−”. In addition, the “Competition with phage clone peptide SEQ ID NO: 1044” value in test [1] was “−”. Moreover, in the test with IL-2Rγc subunit, the “Competition with phage clone peptide SEQ ID NO: 198” value is listed as “+ (Peptide competes with phage binding.)”, the “Competition with phage clone peptide SEQ ID NO: 224” value is reported as “+ (Peptide competes with phage binding.)”, the “Competition with phage clone peptide SEQ ID NO: 236” value is “+ (Peptide competes with phage binding.)” and the “Competition with phage clone peptide SEQ ID NO: 248 or 1051” value is “+ (Peptide competes with phage binding.)”. Also, in the test with IL-2Rγc subunit, the “Competition with phage clone peptide SEQ ID NO: 266” value is on record as “+ (Peptide competes with phage binding.)” and the “Competition with phage clone peptide SEQ ID NO: 948” value is listed as “−”.

With “Compound A: heterodimer of SEQ. ID. NO: 58 and SEQ ID. NO. 224 (chain 1 YDCRIAQVGELCDL; chain 2 DCSMWEGVELCW; cysteine pairing not given here; also: heterodimer)”, the “STAT5 phosphorylation (pSTAT5)” value in the test with NK-92 cells is “induced”.

1041 (WESWNVGDLVNLVNW) [compound 1041]: in test [1], the “competition for binding … of IL-2Rβ ligands” value is recorded as “does not compete”.

Take 236 (MCWLEWGEWVGSCL) [Peptide 236]: in the test with IL-2Rγc subunit, the “Competition with phage clone peptide SEQ ID NO: 198” value was “+ (Peptide competes with phage binding.)”, the “Competition with phage clone peptide SEQ ID NO: 224” value is recorded as “+ (Peptide competes with phage binding.)”, the “Competition with phage clone peptide SEQ ID NO: 236” value is listed as “+ (Peptide competes with phage binding.)” and the “Competition with phage clone peptide SEQ ID NO: 248 or 1051” value is listed as “+ (Peptide competes with phage binding.)”. Also, in the test with IL-2Rγc subunit, the “Competition with phage clone peptide SEQ ID NO: 266” value is recorded as “+ (Peptide competes with phage binding.)” and the “Competition with phage clone peptide SEQ ID NO: 948” value is given as “−”.

On to 202 (RTCTEWENVVLCWV) [Peptide 202], for which, in the test with IL-2Rγc subunit, the “Competition with phage clone peptide SEQ ID NO: 198” value is “+^1 (Peptide competes with phage binding.)”, the “Competition with phage clone peptide SEQ ID NO: 224” value is reported as “+ (Peptide competes with phage binding.)”, the “Competition with phage clone peptide SEQ ID NO: 236” value is “+ (Peptide competes with phage binding.)” and the “Competition with phage clone peptide SEQ ID NO: 248 or 1051” value is “+ (Peptide competes with phage binding.)”. Besides, in the test with IL-2Rγc subunit, the “Competition with phage clone peptide SEQ ID NO: 266” value is on record as “+ (Peptide competes with phage binding.)” and the “Competition with phage clone peptide SEQ ID NO: 948” value is “−”.

As to 58 (YDCRIAQVGELCDL) [compound 58], the “competition for binding to the binding site of the IL-2Rγc subunit with the group of IL-2Rγc ligands” value with IL-2Rγc subunit was “does not compete”.

In the case of 1044 (RSCYYKRPRLWCSE) [Peptide 1044], in test [1], the “Competition with phage clone peptide SEQ ID NO: 58” value was “−^2”, the “Competition with phage clone peptide SEQ ID NO: 170” value is “−”, the “Competition with phage clone peptide SEQ ID NO: 83” value was “−” and the “Competition with phage clone peptide SEQ ID NO: 1034 or 1084” value is “−”. For the same substance, the “Competition with phage clone peptide SEQ ID NO: 1044” value in test [1] was “+ (Peptide competes with phage binding.)”.

Turning to “Compound B: heterodimer of SEQ. ID. NO: 58 and SEQ ID. NO. 237 (chain 1 YDCRIAQVGELCDL; chain 2 LCFSEFLGEWVDCN; cysteine pairing not given here; also: heterodimer)”, the “STAT5 phosphorylation (pSTAT5)” value in the test with NK-92 cells is reported as “induced”.

“SEQ ID NO: 248 or 1051: IL-2Rγc family 3 test peptide, SEQ ID NO: 248 or its modified form SEQ ID NO: 1051 (DLSDLSTFWLSQ; not fully specified)”: in the test with IL-2Rγc subunit, the “Competition with phage clone peptide SEQ ID NO: 198” value is given as “+ (Peptide competes with phage binding.)”, the “Competition with phage clone peptide SEQ ID NO: 224” value was “+ (Peptide competes with phage binding.)”, the “Competition with phage clone peptide SEQ ID NO: 236” value is recorded as “+ (Peptide competes with phage binding.)” and the “Competition with phage clone peptide SEQ ID NO: 248 or 1051” value is recorded as “+ (Peptide competes with phage binding.)”. Also, in the test with IL-2Rγc subunit, the “Competition with phage clone peptide SEQ ID NO: 266” value was “+ (Peptide competes with phage binding.)” and the “Competition with phage clone peptide SEQ ID NO: 948” value is “−”.

On to 948 (SLLKCYNASTCASVF) [Peptide 948], for which, in the test with IL-2Rγc subunit, the “Competition with phage clone peptide SEQ ID NO: 198” value is “−^2”, the “Competition with phage clone peptide SEQ ID NO: 224” value is “−”, the “Competition with phage clone peptide SEQ ID NO: 236” value was “−” and the “Competition with phage clone peptide SEQ ID NO: 248 or 1051” value is on record as “−”. In addition, in the test with IL-2Rγc subunit, the “Competition with phage clone peptide SEQ ID NO: 266” value was “−” and the “Competition with phage clone peptide SEQ ID NO: 948” value was “+ (Peptide competes with phage binding.)”.
